Measurements published in PMC3954457 (The Journal of biological chemistry, 2006).
Blank lines part the entries; values can stand above or below the molecule they belong to.

Key:
[1] = biological target: X di-domain (XDD) of human E3 binding protein: lipoyl domain and subunit binding domain (human); assay: ITC
[2] = biological target: T1, human dihydrolipoamide dehydrogenase (E3) (human, UniProt P09622 36-509); assay: native gel or EMSA
T1 sequence: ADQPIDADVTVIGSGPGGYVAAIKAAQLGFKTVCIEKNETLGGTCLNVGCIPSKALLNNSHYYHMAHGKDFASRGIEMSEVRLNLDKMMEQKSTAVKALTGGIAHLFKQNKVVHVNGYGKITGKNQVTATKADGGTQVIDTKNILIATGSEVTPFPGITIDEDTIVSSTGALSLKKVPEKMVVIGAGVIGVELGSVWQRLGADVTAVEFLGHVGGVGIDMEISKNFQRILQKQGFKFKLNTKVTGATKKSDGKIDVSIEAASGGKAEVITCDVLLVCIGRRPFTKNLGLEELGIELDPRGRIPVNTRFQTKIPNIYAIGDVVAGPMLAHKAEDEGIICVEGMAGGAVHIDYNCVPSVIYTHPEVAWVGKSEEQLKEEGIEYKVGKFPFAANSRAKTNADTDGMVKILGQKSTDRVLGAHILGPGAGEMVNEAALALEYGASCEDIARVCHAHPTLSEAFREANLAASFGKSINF

dH [1]: -12.1 kcal/mol | stoichiometry N [1]: 0.5 E3:XDD
Molecule: human dihydrolipoamide dehydrogenase (E3) (from UniProt P09622 36-509) (enzyme)

stoichiometry N [2]: 2 XSBD:E3
B1: X subunit binding domain (XSBD) of human E3 binding protein (domain or fragment)
chain: QISIPVKKEHIPGTLRFRLSPAARNILEKHSLDASQGTATGPRGIFTKEDALKLVQLKQTGKITE
